B1: Latent membrane protein 1 (Epstein-Barr virus (strain B95-8) (HHV-4)), P03230 (parent)
chain: MEHDLERGPPGPRRPPRGPPLSSSLGLALLLLLLALLFWLYIVMSDWTGGALLVLYSFALMLIIIILIIFIFRRDLLCPLGALCILLLMITLLLIALWNLHGQALFLGIVLFIFGCLLVLGIWIYLLEMLWRLGATIWQLLAFFLAFFLDLILLIIALYLQQNWWTLLVDLLWLLLFLAILIWMYYHGQRHSDEHHHDDSLPHPQQATDDSGHESDSNSNEGRHHLLVSGAGDGPPLCSQNLGAPGGGPDNGPQDPDNTDDNGPQDPDNTDDNGPHDPLPQDPDNTDDNGPQDPDNTDDNGPHDPLPHSPSDSAGNDGGPPQLTEEVENKGGDQGPPLMTDGGGGHSHDSGHGGGDPHLPTLLLGSSGSGGDDDDPHGPVQLSYYD

Variants of: B1
Conditions: with tnik_human TNIK

Row | Variant | effect of a mutation on the interaction
1 | Y384G | disrupting interaction strength
